For 20 sequences, protein production results are on record in a protein production outcome set (Wang et al. 2014).

This data set can be described thus: label from the status in PepcDB records.
Turning to “MAIRDAFGLTFSGATETGFTPYSQAVRELLCFIGDPVASVDRAILADPGFVMAHVFKGYLFGLATERDATAVARACHEAALPLAATTREEAHVLALGHLANGRWHDAARILEDVAIETPLDALALQVGHQIDFFTGNARMLRDRIARALPSWQSGMPGYHAILGMQAFGLEEMGDYTRAEKLGRTAVEIEPRDGWAQHAVAHVMEMQSRQRDGIVWMRANPEAWTKESFLQVHNWWHLALFHYDLGEIDQVLALYDGPIYGAPSAMALNMVDASALLWRLHLGGIDVGDRWAALAANWPKAGAGDYAFNDAHAMMAFVGAGLDGPALALLEAQREAMHGSGDNAAFTRDVGHPLTLAIKAFGEANYTEAVQLIRPIRAIANRFGGSHAQRDVIDLTLIEAALRAGDRALAGALTAERSMARPDSPLSVLLARRAADLSEN”, the protein production entry is listed as “failed”.

Regarding “MKFLTVSDDMNFLRQVNTLVAGKGDMDSVIIGEGDAKGLGSKVLYRAKKGTPFDAVSEGILKIAGNYDYIAIGSTEVGREIAGYLSFKTGFYTATEIFSLEFNGQKAHTKRFFYGGKTVIEEESDARILTVAPGVIEAKDLGTTPEIRDLEIGQSRIKITKFVSKAGGSVRLEDAKVIVSVGRGIGSKENIAKIEPLAKALNGEIAGSRPVCMDYGWLSEDRQVGLSGKKVSPKVYIALGISGQIQHIAGMRNSKTVIAINKDKNAPIFQECDYGIVGDLFTVVPKILEQLKQ”, the protein production result is “failed”.

For the sequence “MEQGMSKRILVPVAHGSEEMETVIIVDTLVRAGFQVTMAAVGDKLQVQGSRGVWLTAEQTLEACSAEAFDALALPGGVGGAQAFADSTALLALIDAFSQQGKLVAAICATPALVFAKQQKFVGARMTCHPNFFDHIPSERLSRQRVCYYATQHLLTSQGPGTALEFALAMIALLAGVELAQHVAAPMVLHPQQLTELSGFIDAQS”, the protein production result is “not failed”.

With “MSMLGIKWKLHGNGKSIRPGHVVAPDERLAWPLTIGIGMQHVVAMFGATFLVPIITGMPPATTLLFSGIGTLLFLVITKGRVPSYLGSSFAFIAPIMASQQQYGVSGALGGVVLAGVVLALIGAVVQKFGAEWINRLMPPIVTGAIVALIGLNLAPAAKANFDAAPVTALITLVTIILVSVLFRGILGRLSILVGVVVGYLVAMMRGEVSYEKMDAAAWVGLPLFQTPEFHIGVVGLFVPVVLVLVAENVGHVKSVAAMTGQNLDGVSGRALMADGAATVLAGFGGGSGTTTYAENIGVMAATKVYSTAAYWVAGVFAILLSFSPKFGELIATVPPGVLGGAATMLYGMIGVLGVKIWVQNKVNFSNPINLTTAAVALIIGIADYAWTIGELKFTGIALGSAAALVIYHGMKGLAHWRGTVAEPETETAGLPPAVKSAMNAAAKRGGKKGK”, the protein production result was “failed”.

Regarding “MACHELSALRIAIGELLEKEAHDLLHEREELAPVLGQRPELKRLAEAKTLPALEEALREALLHLEERAAQEPEEPYWRGLLLAVEAMEGRLKALRAEAEALYQDLDALHGRLHRLFPRRR”, the protein production entry is “not failed”.

For the sequence “VDAGRGAEHDEAVTSDDSASVEVPRRATPADAATVAQMLHDFNTEFGAPTPGTDELASRLSHLLAGEDVVVLLAGEPPTGLAVLSFRPNVWYPGPVAILDELYVRPGRRGHRLGSALLAASCGLVRSRGGALLEINVDGEDTDARRFYEARGFTNTEPNGTEPMLYYYREL”, the protein production entry is on record as “not failed”.

“IKKNVFNIFYLFLVLEELKGPVLYIVGTPIGNLEDITYRAIDVLKSVNVIFAEDTRVTSKLLSRYKINKKMISCNAVTENKKISLLLDYLAKGNSVAFVSDAGTPGLSDPGSLLVAAAFREGYKVCPIPGV”: the protein production entry was “failed”.

Take “MRIHSIILLLFLLVISPVAGSISITDSTASKFDRYFYEGVRQREQENYAAAFDIFRYCHRLNPNDAALLSELGKLYIAIGRQEEGTRYLEQAYRLYPDNKNYGNILGAVYERQGRADDAVRLYEEMSEQFPSEDELRFKLANMYVQAGEIDKAIYIYNRMEAQNAVNAADASNYAEIRARLYLMTGQTNKALNELRRLCNRFPEVNEFRLKYAGTLLDSEKYDEAYEQLQLIARTDSTSGLYHFAMASYYLGTNEKEAAINEMIKVAADKDVAPEQKLPIILRFIGTDTDEEDAPKKEYNILLEKILASHPTEVDARLFYAELLEMQGDSIHAMEVCRPITEFAPKEERAWKFMLGRAVTGQNHTEVHRISEQARQYLPGVPLFYLYDAISYYIEKKGSEAKHILQEALEHIDAEKDPNGLSDIYSQLGDLAYEENKPEEAFANYEKALELNPRNVGVLNNYAYFLAKEGGDLAKAERMAAQCVKLLPDNAVSLDTYGWVFFLRENYTLAKLYIEKALGLAADNPDADVVEHHGDVLYMLGEKEKAMLEWKRAKEIGGGGSPMLDKKIEQGKYIPEKKK”: the protein production entry is “failed”.

In the case of “MIITIANEKGGSGKSTLCLNLCVQLLLDKKDIAALDTDSQKSLEVFNNIRSETSLPNFTLFNRTGNITDTLKQMMDKYEYILIDTKGEHSKESQRAMLLSDWVLIPTTPSQLDTAVLLDMLERIRDIQALNENLKACIVMNRIPTIPTLKEKKALIDFINQNNANESVFLMDNLLSERIAYKRSVSEGMGVMEYNDNKAKNEWSQFYDELNGYLRIKK”, the protein production result was “failed”.

On to “GKIEEVVLGATKADGGTREYTVTLGGERSLAFYTFDAPQPHLPAIAIDVFDRRPMLAKAVRMHYEDVLDNPAEWARKCVKKFGADLVTLHLISTDPLLDDTPASEAVKVLEDVLQAVKCPIIVGGSGNKEKDPEVLEKAAEVAEGERIMLASATLDMDWERIANAAKKYGHVVLSWTQMDINNQKTLNRYLLKRVEMPRDSIVMDPTTAALGYGLDYAFTNMERIRISGLKGDTDLNFPISSGTTNAWGAREAWMVDSPIEEDTPWGPRELRGPIWEIITGLTLSLAGVDLFMMMHPVAVAVLKEVFNTLGGKVSGGVADPGEWIFME”, for which the protein production entry is on record as “failed”.

As to “MTENTKISLIVQEADYNDVGRGYAKINNDVMAKLGVESGDFIKITGKRMGAAKVMRSSVSGSGGIAIDGDIRRSAGAGIGDTVTVEKVVPKTAAKITLQPISQSIRLDSRALEQTIQSKFAGRPITKGQIMTFGFQTKSEDPFFSGWGGFSNYNTEYVDFAVSDVSPGDVAIIGSETTVNYKDSVYKGEDAPKGKSAGNIHYEDIGGLGRELSLVREMIEYPLRHPEVFEKLGIEPPKGVLLYGPPGTGKTLIARAVANEAGAYFDTISGPEIISKYYGDSEEKLREIFEKAEENAPSIIFIDEIDSIAPKREESKGEVERRVVAQLLSLMDGLKSRGKVIVIAATNLPDSIDPALRRGGRFDREIEIGVPDKDGRREILQIHARNVPLSENVKLEKYANTTHGFVGADLALMVKEAAMHALRRAFPGMNPDEEISAEKLENLKVTAEDFESALKMVQPSAMREVLVEVPDIHWADVGGLDSVKEELQQAVEWPLKYREVYKQFATKSPKGFLMFGPPGTGKTLLAKAVANESECNFISVKGPELMSKWVGESEKGIREIFRKARLASPSIIFFDEIDSIVPRRGSYEGSSHVTESVVSQFLTELDGLEELKNVVVIGATNRPDMIDPALLRPGRLEQHIFVPPPDREGRKQILDVYIKDISSMLAEDVNLDELVDKTEGFVGADIEALVREAKMVAIREFVKVMAGHDAAEITLAVSSVKVFGRHFDAALKRVRPSLDKEGRRSAERGSWQYRFNEEERKTLEKGISVVETAEYKDAGSTPELRELDELLMAHQKDFSRIKEIIKTADA”, the protein production entry is listed as “failed”.

In the case of “MQPTTRLSFSQRHPFIFGFLLIMVAVALFTGATATFRHLTDAGSFGGPRIGIVRIEGMIGDVRKTLEWMRKLAEDRTVRGVLVRVDSPGGAVAPSQELHDAVKRLAADKPVVVSMGSLAASGGLMVSTGATRIVANPATITGSIGVKMEMPNVQGLMDKIGVARQTLVSGDLKDAGSPFRAMSEAERAYFQSIIMEMYGQFVSMIAEDRNIPVEKVRSFADGRILTGSQALELGLVDKLGSEAAAMDVLLALVDLKGEKPVFIEPPKERSWVREVLESALGIAPPQNMGQPAFLYY”, the protein production entry is given as “failed”.

For the sequence “MATPKLEIGVIGLGKFGLQVSRTLVELGHSVVGIDSTEGRIRQAQDILSQVYQGNAADPAVLQQLRFQDLDCVIVSVGNSMETSLLVTLNLQEIGVRKIWVKAVSTEHKKVLTRLGVDHVILPEHDVATHLAHRLVNPGMLDLLPLGGGGQILLQELTVDKWAGRTLLDLRLANEHGVMVVAVKPAAFREYRFVPAAHEVLQQGDKLVVIGRHEDVLRLEP”, the protein production result is reported as “failed”.

As for “MRADALKRREHIITTTCNLYRTHHHDSLTMENIAEQAGVGVATLYRNFPDRFTLDMACAQYLFNVVISLQLQAISTFPTDPEGVWTSFNQLLFDRGLGSLVPALAPESLDDLPDEVSALRRTTEKNTTTLINLAKQHGLVHHDIAPGTYIVGLITISRPPITALATISENSHKALLGLYLSGLKHGMMANIGEHDGKS”, the protein production result is listed as “not failed”.

Take “MSLCRLARKNIRTFATKRMKQFMWIAMSIMILFFMISLQFNEGAILKVGDAFVFQMYFYTLFIVLIFICIFTTYKMMYSLLLVRREEFTSYVAENIKRKEVLCLLCQEQLFIYGAAFVFGLVNGMLFLKLFTIIFIRIAGIQGINSAPITIYAIVVVSIIMIVILLLSMVQCFRFVQSLQDKNSLHFKKKA”: the protein production entry is “failed”.

Regarding “SSAEAGGGIRKRHRTKFTAEQKERMLALAERIGWRIQRQDDEVIQRFCQETGVPRQVLKVWLHNNKH”, the protein production result is “not failed”.

Consider “MKMDYKEQSHIIPTYKRFDIVLEKGQGVYLFDDKAKKYLDFSSGIGVCALGYNHAKFNAKIKAQVDKLLHTSNLYYNENIAAAAKNLAKASALERVFFTNSGTESIEGAMKTARKYAFNKGVKGGQFIAFKHSFHGRTLGALSLTANEKYQKPFKPLISGVKFAKYNDISSVEKLVNEKTCAIILESVQGEGGINPANKDFYKALRKLCDEKDILLIADEIQCGMGRSGKFFAYEHAQILPDIMTSAKALGCGLSVGAFVINQKVASNSLEAGDHGSTYGGNPLVCAGVNAVFEIFKEEKILENVNKLTPYLEQSLDELINEFDFCKKRKGLGFMQGLSLDKSVKVAKVIQKCQENALLLISCGENDLRFLPPLILQKEHIDEMSEKLRKALKSF”, for which the protein production entry is “not failed”.

Take “MFSPQAYLIFNMRKPPFDNIKVRQAVMHAFNRKLVVDNIFFGLGKISTSPFVPTEMFFDKDIPAIPFDMKKARALIKESGINPGDYTIRQLSFPYGATWDRLGEYTKQALEQLGFKVNVESTDAGGWASRTGNWDFDLTTTYSYQYGDPALGVQRLYVTSNIVKGSPFANMQGYSNPESDKLWEQAAAEVDPAKRQELYNKIQALLVAEVANGFLVDME”: the protein production result is “failed”.

For the sequence “MLKNHPKGLISASLTNMGERFGFYIMMGILLLFLQAKFGLSGKEASVIYSIFYASVYVLALVGGIIADSMKNYKGTILVGLIVMAAGYVMLGIPTPTQATGMTPWLIFTCAALAFISFGNGLFKGNLQALVGRMYDNDTYRDKRDSGFSLFYMFINVGAVFAPLVAVAIRNWWVQHNGFVYNADLPERCHQILNGTLPENAKAQVMEMIQAANNGTAVATEGLQEFALKYIQVFSTGFHYAFLAAVFFMAISFLIYIINKHQYPADQKANAVTEAHKDQKQEIKMAADEIRQRIIALCAVFGVVIFFWMSFHQNGVSLTQFAKDYIDLSSVKLDLGFTSIVGAEMFQSINPFFVVTLTPLLLFIFGFLKKRNMEPSTPKKIVIGMFIAALAFVVMAIGSMGLPTFEERNAGVEFTKVSPWLMVLTYMILTIAELFISPMGISFVSKVAPPHLQGIMQGLWLCATAVGNSLLFVGMILYESLSISATWIVFTCACALSMLVMLSMVKWLERVAK”, the protein production entry is listed as “failed”.

As for “MCAMSQEHQNPTPLPQVSDMAPVNPPKNQRYPRAVDLSLIECHCCGLLNQVDSDHSEQAHSRHCIRCHSPLHVRKPRSLDRTLALVIAASILYIPANVLPMTMTDSLLGRQQDTIMSGVIYFWQNSDYLVAVVIFMASIFIPMLKLIILCFLLIAVRMQESSKWHFLPEHCALLYRIVEFVGRWSMIDVFVVALLTALIQIQSLATILAGPGAVAFGAVVVLTMFASLSFDPRIIWDNYYKAQAKQHDPLQTIDNTSSISVEQ”, the protein production result is recorded as “failed”.
